Measured values as given in patent US20230220067A1 (Johns Hopkins, published 2023).

Assays:
[1] = molecular target: T1, potassium two pore domain channel subfamily K member 9 (KCNK9) (human, UniProt Q9NPC2 1-374); assay: flow cytometry on induced KCNK9-expressing HEK293 cells, anti-human Fc FITC secondary
T1 construct: whole, on cells; also called human KCNK9
Source text: An anti-KCNK9 mouse monoclonal antibody having a VH amino acid sequence of SEQ ID NO: 1 and a VL amino acid sequence of SEQ ID NO: 2 (mu-mAb) was humanized using a method based on Queen et al., Proc. Natl. Acad. Sci. USA, 86: 10029-10033 (1989). The hybridoma antibody was sequenced after amplifying the antibody variable regions by RT-PCR with degenerate primers. The variable regions were fused with the human antibody IgG1 constant regions to produce a chimeric antibody. Antigen binding of the chimeric antibody was confirmed by staining of the KCNK9-expressing cells. HEK293 cells were stably transfected with KCNK9 expression vector under the tetracycline inducible promoter. After induction, the cells were incubated with various concentrations of chimeric KCNK9 antibody for 30 minutes, followed by secondary anti-human Fc FITC conjugate. Chimeric antibody binding was analyzed by flow cytometry.

human FcγIII = human FcγIII (human, UniProt P08637 17-254); assay: cell-based or functional assay
Chain of human FcγIII (P08637 17-254): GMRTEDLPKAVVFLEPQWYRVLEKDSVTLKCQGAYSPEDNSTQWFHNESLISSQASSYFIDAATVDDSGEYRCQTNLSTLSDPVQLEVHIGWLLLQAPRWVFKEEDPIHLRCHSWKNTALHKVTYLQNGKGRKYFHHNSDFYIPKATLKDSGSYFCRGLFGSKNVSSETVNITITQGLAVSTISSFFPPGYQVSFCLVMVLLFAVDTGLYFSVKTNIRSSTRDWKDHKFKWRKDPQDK

[2] = molecular target: T1, potassium two pore domain channel …; assay: flow cytometry of KCNK9-expressing cells, anti-human Fc PE secondary
Source text: After antibody sequence analysis and structure modeling, the murine antibody CDRs (SEQ ID NOs: 3-8) were grafted into human antibody VK3-11 and VH1-3 frameworks. Critical murine antibody framework residues that support CDR conformation were identified and introduced into the human frameworks. Five variants of the humanized VH sequences (VH1-5; SEQ ID NOs: 9-13) and three variants of the humanized VL variants (VL1-3; SEQ ID NOs: 14-16) were designed and synthesized. All of the variable regions were cloned into a human IgG1 expression vector. The VHs and VLs were cross-matched to generate 15 humanized KCNK9 antibody clones. All humanized antibodies were produced by transient transfection in 293 cells and purified by Protein A chromatography. Antigen binding of the humanized KCNK9 antibodies was characterized by immunofluorescence staining of KCNK9-expressing cells.

T1 sequence (Q9NPC2 whole entry, the tested form may be a part): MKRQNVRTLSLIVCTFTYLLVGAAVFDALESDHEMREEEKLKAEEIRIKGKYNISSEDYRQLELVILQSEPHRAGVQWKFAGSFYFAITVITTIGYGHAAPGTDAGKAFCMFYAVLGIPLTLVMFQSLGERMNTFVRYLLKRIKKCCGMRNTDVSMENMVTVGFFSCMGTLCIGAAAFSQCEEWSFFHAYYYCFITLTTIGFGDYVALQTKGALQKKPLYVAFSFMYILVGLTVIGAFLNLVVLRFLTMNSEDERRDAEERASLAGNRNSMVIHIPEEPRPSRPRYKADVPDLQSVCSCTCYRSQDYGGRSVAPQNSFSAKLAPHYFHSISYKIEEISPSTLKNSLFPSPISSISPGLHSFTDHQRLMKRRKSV

Row | Binder | ADCC activity (lysis of KCNK9-expressing HEK293 target cells by NK92-3F9 effector cells) (human FcγIII) [fold] | binding result [2] | other results
1 | chimeric KCNK9 antibody (antibody, V domains shown, Variable regions of the mouse anti-KCNK9 monoclonal antibody (mu-mAb) fused with human antibody IgG1 constant regions; also called chimeric antibody; chimeric KCNK9 monoclonal antibody) VH: EVQLQQSGPELVKPGASVKTSCKASGYSFTGYYMYWVKQSPEKSLEWIGEINPSSGGTTYNQKFKAKATLTVDKSSSTAYMQLKSLTFEDSAVYYCARSGLRRRFYAMDYWGQGTSVTVSS VL: DIVLTQSPASLAVSLGQRATVSCRASESVDSFGTTFMHWYQQKPGQPPKLLIYRASNLESGIPARFSGSGSRTDFTLTINPVEADDVATYYCQQSNKDPPTFGGGSKLEIK | – | – | EC50 [1]: ~0.3 µg/mL
2 | afucosyl humanized KCNK9 monoclonal antibody AF-H4L3 (antibody, V domains shown, afucosyl N-glycan on the Fc region (made in fut8-/- CHO cells)) VH: QVQLVQSGAEVKKPGASVKVSCKASGYSFTGYYMYWVRQAPGQRLEWMGEINPSSGGTTYNQKFKARVTLTVDKSASTAYMELSSLRSEDTAVYYCARSGLRRRFYAMDYWGQGTLVTVSS VL: EIVLTQSPATLSLSPGERATLSCRASESVDSFGTTFMHWYQQKPGQPPRLLIYRASNLESGIPARFSGSGSRTDFTLTISSLEPEDFATYYCQQSNKDPPTFGGGTKVEIK | 100 | – | –
3 | humanized KCNK9 antibody clone H4L3 (antibody, V domains shown, Variable regions cloned into a human IgG1 expression vector; produced in 293 cells) VH: QVQLVQSGAEVKKPGASVKVSCKASGYSFTGYYMYWVRQAPGQRLEWMGEINPSSGGTTYNQKFKARVTLTVDKSASTAYMELSSLRSEDTAVYYCARSGLRRRFYAMDYWGQGTLVTVSS VL: EIVLTQSPATLSLSPGERATLSCRASESVDSFGTTFMHWYQQKPGQPPRLLIYRASNLESGIPARFSGSGSRTDFTLTISSLEPEDFATYYCQQSNKDPPTFGGGTKVEIK | – | binds | –
4 | afucosyl humanized KCNK9 monoclonal antibody AF-H5L2 (antibody, V domains shown, afucosyl N-glycan on the Fc region (made in fut8-/- CHO cells)) VH: QVQLVQSGAEVKKPGASVKVSCKASGYSFTGYYMYWVRQAPGQRLEWIGEINPSSGGTTYNQKFKARATLTVDKSASTAYMELSSLRSEDTAVYYCARSGLRRRFYAMDYWGQGTLVTVSS VL: EIVLTQSPATLSLSPGERATLSCRASESVDSFGTTFMHWYQQKPGQAPRLLIYRASNLESGIPARFSGSGSRTDFTLTISSLEPEDFAVYYCQQSNKDPPTFGGGTKVEIK | 100 | – | –
5 | humanized KCNK9 antibody clone H5L2 (antibody, V domains shown, Variable regions cloned into a human IgG1 expression vector; produced in 293 cells) VH: QVQLVQSGAEVKKPGASVKVSCKASGYSFTGYYMYWVRQAPGQRLEWIGEINPSSGGTTYNQKFKARATLTVDKSASTAYMELSSLRSEDTAVYYCARSGLRRRFYAMDYWGQGTLVTVSS VL: EIVLTQSPATLSLSPGERATLSCRASESVDSFGTTFMHWYQQKPGQAPRLLIYRASNLESGIPARFSGSGSRTDFTLTISSLEPEDFAVYYCQQSNKDPPTFGGGTKVEIK | – | binds | –
